Experimental data taken from publication PMC12135937, “Members of the DIP and Dpr adhesion protein families use cis inhibition to shape neural development in Drosophila” (PLOS Biology, 2025).

T1: DIP-β isoform G (Drosophila melanogaster)
T1 construct: has an 11 amino acid deletion in the first Ig domain relative to DIP-β-C; Monomeric protein was used for SPR; also called DIP-β-G; not shown: His6, C-terminal, kept
T1 chain: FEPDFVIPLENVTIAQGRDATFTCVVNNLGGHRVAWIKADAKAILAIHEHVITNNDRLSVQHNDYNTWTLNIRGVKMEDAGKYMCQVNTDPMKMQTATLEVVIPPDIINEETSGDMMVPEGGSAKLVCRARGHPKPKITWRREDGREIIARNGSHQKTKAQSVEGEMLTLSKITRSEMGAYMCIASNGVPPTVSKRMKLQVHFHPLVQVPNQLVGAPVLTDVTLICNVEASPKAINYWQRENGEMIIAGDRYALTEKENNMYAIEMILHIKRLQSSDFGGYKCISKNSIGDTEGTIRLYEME

T2: DIP-β-G recombinant protein for SPR (printed sequence) (Drosophila melanogaster)
T2 construct: DIP-β isoform G, Drosophila melanogaster; Monomeric protein was used for SPR; immobilised by amine coupling; also called Isoform G of DIP-β; not shown: His6, C-terminal, kept
T2 chain: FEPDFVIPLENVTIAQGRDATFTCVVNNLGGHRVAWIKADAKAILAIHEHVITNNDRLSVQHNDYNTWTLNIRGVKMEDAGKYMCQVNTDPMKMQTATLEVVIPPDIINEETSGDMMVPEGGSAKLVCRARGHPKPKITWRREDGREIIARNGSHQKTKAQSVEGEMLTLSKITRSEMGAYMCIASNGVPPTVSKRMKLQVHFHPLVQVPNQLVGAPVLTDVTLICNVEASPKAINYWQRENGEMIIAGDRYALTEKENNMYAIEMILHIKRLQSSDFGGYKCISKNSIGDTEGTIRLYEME


Tests used:
Settings in all cases: both partners purified
[1] = target: T3, DIP-β isoform C (Drosophila melanogaster); assay: SPR; Biacore T100, CM4 chip; DIPs immobilised by amine coupling (700-900 RU), monomeric Dpr analytes in 3-fold dilution series (0.012 to 9, 27 or 81 µM); 25 °C; 10 mM Tris-HCl pH 7.2, 150 mM NaCl, 1 mM EDTA, 1 mg/mL BSA, 0.01% Tween-20; equilibrium responses fit to a 1:1 model
T3 construct: Monomeric protein was used for SPR; also called DIP-β-C

[2] = target: T1, DIP-β isoform G; assay: as above
[3] = target: T2, DIP-β-G recombinant protein for SPR …; assay: SPR; Biacore T100, CM4 chip; DIPs immobilised by amine coupling (700-900 RU), monomeric Dpr analytes in 3-fold dilution series; 25 °C; 10 mM Tris-HCl pH 7.2, 150 mM NaCl, 1 mM EDTA, 1 mg/mL BSA, 0.01% Tween-20; equilibrium responses fit to a 1:1 model

T3 sequence (main, as listed by the source): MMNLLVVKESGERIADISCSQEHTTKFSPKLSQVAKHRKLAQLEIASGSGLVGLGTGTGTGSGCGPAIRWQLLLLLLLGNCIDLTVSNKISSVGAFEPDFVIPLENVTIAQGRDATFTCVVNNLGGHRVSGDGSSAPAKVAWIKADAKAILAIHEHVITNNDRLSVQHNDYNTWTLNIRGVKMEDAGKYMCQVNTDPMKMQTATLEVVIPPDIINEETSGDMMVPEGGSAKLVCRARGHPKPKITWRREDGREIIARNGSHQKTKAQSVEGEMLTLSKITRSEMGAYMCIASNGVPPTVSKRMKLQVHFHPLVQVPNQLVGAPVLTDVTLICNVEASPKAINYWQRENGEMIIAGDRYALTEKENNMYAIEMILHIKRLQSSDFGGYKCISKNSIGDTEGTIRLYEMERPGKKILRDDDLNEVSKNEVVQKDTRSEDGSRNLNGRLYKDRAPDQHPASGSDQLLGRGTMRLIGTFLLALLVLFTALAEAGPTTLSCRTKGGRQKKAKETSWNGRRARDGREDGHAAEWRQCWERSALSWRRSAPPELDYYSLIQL

| Binder | Kd [1] | Kd [2] | Kd [3] |
| --- | --- | --- | --- |
| Dpr21 (natural protein) DRGPYFDTSATKNVTSLVGITGHLNCRIKNLGNKTVSWIRHRDLHLLTVSESTYTSDQRFTSIYNKQTGDWSLQIKFPQLRDSGIYECQVSTTPPVGYTMVFSVVEPITSILGGPEIYIDLGSTVNLTCVIKHLPDPPISVQWNHNNQEINYDSPRGGVSVITEKGDITTSYLLIQRASIADSGQYTCLPSNANSKSVNVHILKGD | 1.55 µM | 5.05 µM | – |
| Dpr6 (natural protein) WMEPYFDPSTPRNVTALMGKSAYLSCRVRNLANKTVSWIRHRDIHILTVGSYTYTSDQRFQATHHQDTEDWTLQIKWAQKRDAGMYECQISTQPVRSYFVRLNVVVPTATILGGPDLHVDKGSTINLTCTVKFSPEPPAYIFWYHHEEVINYDSSRGGVSVITEKGDVTTSFLLIQNADLADSGKYSCAPSNADVASVRVHVLNGE | 22 µM | 15.2 µM | – |
| Dpr15 (natural protein) TLKPPPTIDDYQTIISQAGTHAYLPCNVKQLVKKPISWLRMRDGHILTVDQTTFIADQRFQSVFSPNPERWSLQIKYVQLKDEGTYECQVSTEPKASAIVHLRIVEPKTELIGESTRHVKAGSQVKLRCIISQALEPPLFINWFYNQKQIYLHNRRGWRTEIERIDLPAEVPTTSTTTTTTTTTASTTTTTTSTTPATPSTTATGSTEGATSSETLNGLVTITRSYILDAISQNDVSELGAAAGVAVATETSTAQLLTEVEATSSTSGTSTGAGLLASTSAAYAAGAAAGITTAATGDSAATAATTSAWLTTMDAEAATTAATTTTTMLPSSSFIKQITTASLIIPAVVKLDSGNYTCSPSNSAPRTIVLHVLNGE | 25.3 µM | 159 µM | – |
| Dpr10-A recombinant protein for SPR (printed sequence) (domain or fragment, Drosophila melanogaster, Dpr10 isoform A, Drosophila melanogaster; Monomeric protein was used for SPR; analyte; not shown: His6, C-terminal, kept) WNEPYFDLTMPRNITSLVGKSAYLGCRVKHLGNKTVAWIRHRDLHILTVGTYTYTTDQRFQTSYHRDIDEWTLQIKWAQQRDAGVYECQISTQPVRSYSVNLNIVDLIDAETSDIMQQYYNDDAFYIAENRVYQSSNDEFAGMFGPIQTVAVPTATILGGPDLYVDKGSTINLTCIIKFSPEPPTHIFWYHQDKVLSEETSGGRLKFKTIKSEETKSILLIYDADLLHSGKYSCYPSNTEIASIRVHVLQGE | – | – | 5.76 µM |
